Measurements from patent US9012420B2, “Aptamer for chymase, and use thereof” (Ribomic Inc., priority 2009, dated 2015).
Oligonucleotides are written 5' to 3', each unit as a sugar letter and its base; * is a phosphorothioate linkage, no mark a phosphodiester; rarer units and linkages stand in square brackets, end groups in braces. Plain capitals give the bases only. r = 2'-OH (RNA); f = 2'-fluoro

T1: chymase (recombinant, manufactured by SIGMA) (Homo sapiens, UniProt P23946)
T1 construct: purchased SIGMA; host or cells: yeast
T1 sequence (P23946 22-247): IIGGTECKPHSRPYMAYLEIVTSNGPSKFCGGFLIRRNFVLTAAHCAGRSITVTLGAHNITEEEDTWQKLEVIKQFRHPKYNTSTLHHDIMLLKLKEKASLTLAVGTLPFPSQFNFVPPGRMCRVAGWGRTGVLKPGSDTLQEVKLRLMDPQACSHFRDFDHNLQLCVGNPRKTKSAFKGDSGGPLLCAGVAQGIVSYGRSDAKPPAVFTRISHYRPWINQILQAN

T2: chymase (Homo sapiens, UniProt P23946)
T2 sequence (P23946 22-247): T1 sequence (P23946 22-247)

B1: 24 (nucleic acid)
chain: rGrGrGrAfCrGrGfUrArGrGrArAfUfUfCfCfCfUfUfCrAfUrArGfUrArGrArAfUrGfUfUrGrGfUfUfUfCfUrAfCrArArArArGfCrGrAfCrArArGfCrAfUrArGrArArGrArGfCrGrGfCfCrGfC
modifications: aptamer
B2: 27 (nucleic acid)
chain: rGrGrGrAfCrGrGfUrArGrGrArAfUfUfCfCrGfUfCrAfUfCrGrGfUfUrGfCrArArAfUfUrGrArArArAfUrAfCrArArArAfCrArArGrGrAfCrArAfCfCrAfUrArGrArArGrArGfCrGrGfCfCrGfC
modifications: aptamer
B3: 22 (nucleic acid)
chain: rGrGrGrAfCrGrGfUrArGrGrArAfUfUfCfCfCrGrAfCrAfCrArArArAfUrGfUrGfUrGrAfUfUrArAfUfUfCfCrGrArAfCrArAfCrArArArGfUrArAfCrAfUrArGrArArGrArGfCrGrGfCfCrGfC
modifications: aptamer
B4: 20 (nucleic acid)
chain: rGrGrGrAfCrGrGfUrArGrGrArAfUfUfCrArArArAfUfCrArGfCfUrGrAfUfUfUrGfUrArAfUfUfUfUfUfUfUrAfCrAfCrArGrGfCrArArArAfCrAfCrAfUrArGrArArGrArGfCrGrGfCfCrGfC
modifications: aptamer
B5: 19 (nucleic acid)
chain: rGrGrGrAfCrGrGfUrArGrGrArAfUfUfCfCfCrAfCfUrGfCrArAfUfUfCrArGfCrArGrArArArArArAfUfUfCfCrGrArArArArAfCrAfCrAfCrAfCfCrAfUrArGrArArGrArGfCrGrGfCfCrGfC
modifications: aptamer
B6: 16 (nucleic acid)
chain: rGrGrGrAfCrGrGfUrArGrGrArAfUfUfCfCfCrAfUrGrAfCfUrGrArArArArAfCrGfUfCrArGfUrArArArAfUfCfCrGrArArArAfUfCrAfUrAfUfCrAfUrArGrArArGrArGfCrGrGfCfCrGfC
modifications: aptamer
B7: 18 (nucleic acid)
chain: rGrGrGrAfCrGrGfUrArGrGrArAfUfUfCrGrArAfCrGrAfCrArArAfUfUrAfUrArGrArAfCfUfUfCrGfUfUfUrGrAfCrAfUfUfCfCrAfCrAfCfCrAfCrAfUrArGrArArGrArGfCrGrGfCfCrGfC
modifications: aptamer
B8: 31 (nucleic acid)
chain: rGrGrGrAfCrGrGfUrArGrGrArAfUfUfCrGfUfCfCfCfUfCrAfUrGfUfCfUrAfUfUfUfUrGfCrArGrAfUrArGrAfCfUfUrArArArGfCrArArAfCrAfUrArGrArArGrArGfCrGrGfCfCrGfC
B9: 30 (nucleic acid)
chain: rGrGrGrAfCrGrGfUrArGrGrArAfUfUfCrGfUfCfCfCfUfCfUfUrGfUfCfUrAfUfUfUfUrGfCrArGrAfUrArGrAfCfUfUrArArArGfCrArArAfCrAfUrArGrArArGrArGfCrGrGfCfCrGfC
B10: 26 (nucleic acid)
chain: rGrGrGrAfCrGrGfUrArGrGrArAfUfUfCrGfUfCrGrAfUfUfCfUrAfCrArGrAfUrArGrArGrAfUrArArArGfUrArGrArAfUfUfUrArAfCrArArArAfCrAfUrArGrArArGrArGfCrGrGfCfCrGfC
modifications: aptamer
B11: 23 (nucleic acid)
chain: rGrGrGrAfCrGrGfUrArGrGrArAfUfUfCrAfUrAfUrGfUrAfCfUfCfCrGfUfCfCfUrGrAfCrArArArAfUrGfUfCrArAfUrGrAfCrArArAfCrGfUfUfCrAfUrArGrArArGrArGfCrGrGfCfCrGfC
modifications: aptamer
B12: 17 (nucleic acid)
chain: rGrGrGrAfCrGrGfUrArGrGrArAfUfUfCfCrGfUfUfCrGfCrArGrArArAfCrGrArAfCfUfUfUfUrArArArArArAfUrGfUrAfCrGfUrGrGrGrArGfCrAfCrAfUrArGrArArGrArGfCrGrGfCfCrGfC
B13: 25 (nucleic acid)
chain: rGrGrGrAfCrGrGfUrArGrGrArAfUfUfCrArGfCfUrGrAfCfUfCfCrArAfUrGfCrAfCrAfCrGfUrArGrAfUrArGrArGfUfUrArArArAfCrGfUfUrGfCrAfUrArGrArArGrArGfCrGrGfCfCrGfC
modifications: aptamer
B14: 29 (nucleic acid)
chain: rGrGrGrAfCrGrGfUrArGrGrArAfUfUfCrAfCrGrAfCfCrGfCfCfCrArArArArArAfUrGrGfUrGrAfCrAfUfUfUfUrArGrArArAfCrAfCfCrGrArAfCrAfUrArGrArArGrArGfCrGrGfCfCrGfC
modifications: aptamer
B15: 28 (nucleic acid)
chain: rGrGrGrAfCrGrGfUrArGrGrArAfUfUfCrArAfUfUfUfCfUfUfUfCfUrAfUfUfCfUfCrAfCfCfUrGrArGfUrAfUrAfUfCrArGrGfCrAfCrArGfUrAfCrAfUrArGrArArGrArGfCrGrGfCfCrGfC
modifications: aptamer

Biological target: T1, chymase (recombinant, manufactured by SIGMA)
Test: Chymase inhibitory activity using synthetic substrate Suc-Ala-Ala-Pro-Phe-MCA
Assay type: biochemical
Settings: Table 3; substrate 100 μM, solution C, 37° C.; mean value for 2 to 3 measurements
Method: A first method employs a synthetic substrate. A useful chymase substrate is Suc-Ala-Ala-Pro-Phe-MCA (4-methylcoumaryl-7-amide group) (manufactured by Peptide Institute, Inc.), which contains the 4-amino acid peptide “Ala-Ala-Pro-Phe”, a standard substrate for chymotrypsin-like proteases.
The assay is performed using a 96-well plate (F16 Black Maxisorp Fluoronunc, manufactured by Nunc), with a reaction mixture volume of 100 μL, in a buffer solution (solution C; see Example 2 below). First, each nucleic acid is prepared in solution C to obtain 50 μL solutions. After 10 μL of the 1 mM substrate prepared in solution C is added, the plate is set to the microplate reader SpectraMax190 (manufactured by Molecular Devices Corporation), and incubated at 37° C. for 5 minutes. Separately, 0.05 μg of chymase (recombinant, manufactured by SIGMA) is diluted in solution C, and 40 μL of this dilution is incubated at 37° C. for 5 minutes. The chymase solution is added to the mixture of the nucleic acid and substrate to initiate an enzyme reaction. The plate containing the reaction mixture is set to the microplate reader SpectraMax190 (manufactured by Molecular Devices Corporation), and examined for time-dependent changes in the fluorescence intensity at 37° C. for 5 minutes (excitation wavelength 380 nm, detection wavelength 460 nm). A linear approximation of the increase in the fluorescence of the AMC (7-amino-4-methylcoumarine) released from the substrate by chymase activity is generated, and its slope is taken as the initial reaction velocity. For control, samples are treated and analyzed in the same manner in two cases: use of a nucleic acid pool containing a random sequence of 30 or 40 nucleotides (negative control), and use of chymostatin, a known chymotrypsin-like serine protease inhibitor (positive control). Taking the initial reaction velocity without the nucleic acid and inhibitor as a 100% enzyme activity, the inhibitory rate for each test substance is calculated, and the inhibitor concentration required to cause a 50% inhibition of the enzyme activity (IC50) is determined.
Whether the nucleic acids shown by SEQ ID NO: 4-20, 22-34, and 38-48 inhibit the enzyme activity of chymase was determined as described below. The chymase substrate used was Suc-Ala-Ala-Pro-Phe-MCA (manufactured by Peptide Institute, Inc.), which contains the 4-amino-acid peptide Ala-Ala-Pro-Phe, a standard substrate for chymotrypsin-like proteases. Here, Suc is a protecting succinyl group, and MCA is a 4-methylcoumaryl-7-amide group; upon cleavage of the C-terminal side of phenylalanine, AMC (7-amino-4-methylcoumarine) is released. By detecting the fluorescence of this AMC, the enzyme activity of chymase can be determined. The assay was performed using a 96-well plate (F16 Black Maxisorp Fluoronunc, manufactured by Nunc), with a reaction mixture volume of 100 μL, in solution C as a buffer solution. First, each nucleic acid was serially diluted to 0.0027-2 μM concentrations in solution C to obtain 50 μL solutions. After 10 μL of the 1 mM substrate prepared in solution C was added thereto, the plate was set to the microplate reader SpectraMax190 (manufactured by Molecular Devices Corporation), and incubated at 37° C. for 5 minutes. Separately, 0.05 μg (or 0.005 μg) of chymase (recombinant, manufactured by SIGMA) was diluted in solution C to obtain a 40 μL chymase solution, and incubated at 37° C. for 5 minutes. The chymase solution was added to the mixture of the nucleic acid and substrate to initiate an enzyme reaction. The final chymase concentration in the reaction mixture was 16.7 nM (or 1.67 nM), the final substrate concentration being 100 μM. The plate containing the reaction mixture was set to the microplate reader SpectraMax190 (manufactured by Molecular Devices Corporation), and examined for time-dependent changes in the fluorescence intensity at 37° C. for 5 minutes (or 30 minutes) (excitation wavelength 380 nm, detection wavelength 460 nm). […]

Molecule | IC50
B1 | 92 ± 3 nM
B2 | > 500 nM
B3 | 105 ± 9 nM
B4 | 282 ± 13 nM
B5 | 163 ± 1 nM
B6 | > 500 nM
B7 | 58 ± 21 nM
B8 | 155 ± 39 nM
B9 | 147 ± 44 nM
B10 | 106 ± 4 nM
B11 | 238 ± 60 nM
B12 | 92 ± 42 nM
B13 | 79 ± 28 nM
B14 | > 500 nM
B15 | 45 ± 4 nM

Biological target: T2, chymase
Test: Surface plasmon resonance (Biacore T100), aptamer immobilized on SA chip, chymase injected as analyte
Assay type: binding
Design: key: ++: a sequence that binds to chymase significantly more strongly than the negative control 40N; +: a sequence that binds to chymase equivalently compared with the negative control 40N
Settings: Table 1; about 1000 RU nucleic acid immobilized, chymase 0.2 μM analyte, running buffer solution A; compared with 40N
Method: Binding strength is measured using Biacore T100 (manufactured by GE Healthcare). In a method of measurement, the aptamer is first immobilized onto a sensor chip, the amount immobilized being about 1000 RU. 20 μL of a chymase solution for analyte, prepared at 0.2 μM, is injected, and the binding of chymase to the aptamer is detected. An RNA comprising a random nucleotide sequence of 30 or 40 nucleotides is used as a negative control.
The binding activities against chymase of the nucleic acids shown by SEQ ID NO: 4-20 and 22-34 were determined by the surface plasmon resonance method using Biacore T100 (manufactured by GE Healthcare). The sensor chip used was the SA chip, which had streptavidin immobilized thereon. Bound thereto was about 1500 RU of a 16-nucleotide Poly dT with biotin bound to the 5′ end thereof. […] 20 μL of chymase for analyte, prepared at 0.2 μM, was injected. Solution A was used as a running buffer.
The binding activities against chymase of the nucleic acids shown by SEQ ID NO: 38-48 were evaluated by the surface plasmon resonance method. In the evaluations for SEQ ID NO: 38-48, measurements were taken in the same manner as Example 1. Solution C was used as a running buffer.

Molecule | Binding activity as determined using Biacore
B1 | ++
B2 | ++
B3 | +
B4 | +
B5 | ++
B6 | ++
B7 | ++
B8 | +
B9 | ++
B10 | ++
B11 | ++
B12 | ++
B13 | ++
B14 | ++
B15 | +
